This is an account of results in patent publication US20260035447A1 (SCHOLAR ROCK, published 2026).

The target in this experiment is T1, proGDF11 (Mus musculus, UniProt Q9Z1W4).
T1 construct: The text calls it recombinant mouse GDF11 / rGDF11, and the sheet labels it '10x proGDF11'; also called recombinant mouse GDF11; rGDF11 (murine)
T1 sequence (proprotein, looked up): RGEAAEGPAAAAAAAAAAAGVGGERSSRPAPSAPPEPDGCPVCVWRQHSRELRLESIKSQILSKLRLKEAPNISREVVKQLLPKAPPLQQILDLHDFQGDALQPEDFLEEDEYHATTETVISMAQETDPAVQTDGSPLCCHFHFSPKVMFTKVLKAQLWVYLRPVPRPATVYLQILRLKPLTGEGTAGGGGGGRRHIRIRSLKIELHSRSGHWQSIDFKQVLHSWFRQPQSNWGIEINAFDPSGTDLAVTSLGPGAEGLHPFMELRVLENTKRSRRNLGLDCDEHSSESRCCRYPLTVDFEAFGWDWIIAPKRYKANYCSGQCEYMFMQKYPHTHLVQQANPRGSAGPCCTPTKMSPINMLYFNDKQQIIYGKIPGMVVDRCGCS
Description: recombinant protein absorption: Ab10 at 50 µg/mL pre-incubated overnight with 10-fold molar excess of recombinant mouse GDF11, then used as primary antibody for immunofluorescence on mouse tibialis anterior sections; read-out is retained tissue pro/latent GDF8 staining. How it is done: Tibialis anterior (TA) muscles were fixed in ice cold 4% paraformaldehyde (EMS), PBS for 30 min, incubated overnight in 10% sucrose, PBS at 4° C., then incubated overnight in 20% sucrose, PBS. Muscles were then mounted on cork with tragacanth (Sigma) and frozen in liquid nitrogen cooled isopentane (Sigma) for cryosectioning. 10 μm sections of TA muscle were permeabilized with 0.1% Triton-X 100 (Sigma), PBS for 20 minutes, washed once with 0.05% Triton-X 100, PBS (PBS/T), and then incubated in Mouse IgG blocking reagent (Vector Lab) diluted at 1 drop per 1.5 mL PBS/T for 1 h. Sections were washed once with PBS/T and then incubated in 10% Normal Goat Serum (Sigma), 1% Blocking powder (Perkin Elmer), PBS/T (NGB) for 30 minutes at room temperature. Primary antibodies (Rabbit anti-laminin, 1:5000, Abcam; Ab10, […]; HuNeg, 50 μg/mL,) were diluted in NGB and applied to sections overnight at 4° C. Sections were washed 3 times with PBS/T, and then incubated in secondary antibodies (Alexa Fluor 488 conjugated Goat anti-Rabbit, 1:1000, Invitrogen; Alexa Fluor 594 conjugated Goat anti-Human IgG FCY, 1:500, Jackson ImmunoResearch) diluted in NGB for 1 h. Sections were then incubated in 350 nM DAPI (Thermo), PBS/T for 5 minutes, washed twice with PBS/T, and then mounted with Vectashield (Vector Laboratories). […]

B1: anti-pro/latent GDF8 antibody, Ab10 (antibody, V domains shown)
VH: EVQLVQSGGGVVQSGRSLRLSCVASGFSFSNYGMHWVRQAPGKGLEWLAFIWYDGSNKWYADSVKGRFTISRDNSKNALYLQMNSLRAEDTAVYYCARDRYSSSWGGGFDYWGQGTVLTVSS
VL: NFMLTQPHSVSESPGRTVTIPCSGRGGSIASDSVQWYQQRPGSAPTTIIYEDNQRPSGVPDRFSGSVDSSSNSASLTISGLRTEDEADYYCQSYDASSLWVFGGKTKLTVLG
notes: The VL as printed runs into the start of the lambda constant region
As to B1, the binding result was “no binding”.
